Measured values as given in patent US20200317768A1 (published 2020).
Substitutions are numbered along the chain they refer to. Names may count otherwise.

T1: cynomolgus monkey FcγRIIa1 extracellular domain, His-tagged (cynomolgus monkey)
T1 construct: also called cyno FcγRIIa1; cynoFcgRIIa1; not shown: C-terminal His-tag
T1 chain: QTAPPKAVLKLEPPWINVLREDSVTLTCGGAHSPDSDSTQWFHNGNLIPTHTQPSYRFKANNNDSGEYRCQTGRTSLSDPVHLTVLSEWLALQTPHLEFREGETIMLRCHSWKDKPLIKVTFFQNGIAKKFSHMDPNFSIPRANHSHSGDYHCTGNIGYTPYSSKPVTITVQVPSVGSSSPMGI

T2: cynomolgus monkey FcγRIIa2 extracellular domain, His-tagged (cynomolgus monkey)
T2 construct: also called cyno FcγRIIa2; cynoFcgRIIa2; not shown: C-terminal His-tag
T2 chain: T1 chain with P95T, T121A, I127K, A128S, K130N, D135N, R142Q

T3: cynomolgus monkey FcγRIIa3 extracellular domain, His-tagged (cynomolgus monkey)
T3 construct: also called cyno FcγRIIa3; cynoFcgRIIa3; not shown: C-terminal His-tag
T3 chain: T1 chain with P95T, T121A, A128S, H133P, D135N

T4: cynomolgus monkey FcγRIIb extracellular domain, His-tagged (cynomolgus monkey)
T4 construct: also called cyno FcγRIIb; cynoFcγRIIb; not shown: C-terminal His-tag
T4 chain: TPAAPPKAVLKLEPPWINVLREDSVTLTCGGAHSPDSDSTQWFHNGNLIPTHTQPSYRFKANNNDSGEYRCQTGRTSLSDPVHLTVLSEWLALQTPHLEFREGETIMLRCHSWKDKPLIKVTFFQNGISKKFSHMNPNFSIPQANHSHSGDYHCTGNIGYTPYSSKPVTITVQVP

T5: cynomolgus monkey FcγRIIIaS extracellular domain, His-tagged (cynomolgus monkey, UniProt Q8SPW2 21-206 at identity 1.00))
T5 construct: also called cyno FcγRIIIaS; cynoFcγRIIIaS; not shown: C-terminal His-tag
T5 chain: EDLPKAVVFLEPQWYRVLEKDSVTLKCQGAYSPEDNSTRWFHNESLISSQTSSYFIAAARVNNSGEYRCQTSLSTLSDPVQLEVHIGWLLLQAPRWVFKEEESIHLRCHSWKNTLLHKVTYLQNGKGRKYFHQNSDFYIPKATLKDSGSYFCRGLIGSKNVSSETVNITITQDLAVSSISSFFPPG

T6: human FcγRIIaH extracellular domain, His-tagged (human, UniProt P12318 34-217)
T6 construct: also called human FcγRIIa (type H); FcgRIIaH; not shown: C-terminal His-tag
T6 sequence: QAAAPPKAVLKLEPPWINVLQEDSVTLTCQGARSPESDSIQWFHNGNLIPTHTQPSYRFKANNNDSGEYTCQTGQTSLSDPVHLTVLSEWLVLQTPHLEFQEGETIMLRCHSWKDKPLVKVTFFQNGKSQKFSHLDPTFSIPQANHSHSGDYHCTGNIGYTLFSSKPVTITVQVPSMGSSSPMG

T7: human FcγRIIaR extracellular domain, His-tagged (human, UniProt P12318 34-217)
T7 construct: also called human FcγRIIa (type R); FcgRIIaR; not shown: C-terminal His-tag
T7 chain: T6 sequence with H134R

T8: human FcγRIIb extracellular domain, His-tagged (human, UniProt P31994 43-217)
T8 construct: also called FcgRIIb (human); not shown: C-terminal His-tag
T8 sequence: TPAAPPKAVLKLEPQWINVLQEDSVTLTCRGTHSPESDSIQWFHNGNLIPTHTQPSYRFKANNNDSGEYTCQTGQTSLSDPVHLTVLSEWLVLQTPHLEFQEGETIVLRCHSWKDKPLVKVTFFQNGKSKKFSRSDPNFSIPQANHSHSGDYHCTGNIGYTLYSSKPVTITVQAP

T9: human FcγRIIaH extracellular domain, C-terminal His-tag (human, UniProt P12318 34-217)
T9 construct: also called human FcγRIIa (type H); FcgRIIaH
T9 sequence: T6 sequence

T10: human FcγRIIb extracellular domain, C-terminal His-tag (human, UniProt P31994 43-217)
T10 construct: also called FcgRIIb (human)
T10 sequence: T8 sequence

B1: M103205H795-MY453/M103202L889-SK1 (antibody, human IgG1, kappa)
heavy: QVTLKESGPVLVKPTETLTLTCTVSGIDLSHDDISWVRQAPGKGLEWVGIISYAGSTYYASWAKGRLTISKDTSKNQVVLTMTNMDPVDTATYYCARGVPAYSHGGDLWGQGTLVTVSSASTKGPSVFPLAPSSKSTSGGTAALGCLVKDYFPEPVTVSWNSGALTSGVHTFPAVLQSSGLYSLSSVVTVPSSSLGTQTYICNVNHKPSNTKVDKKVEPKSCDKTHTCPPCPARELLTGPSVFLFPPKPKDTLMISRTPEVTCVVVDVSDEDPEVKFNWYVDGVEVHNAKTKPREEQYNSTYRVVSVLTVLHQDWLNGKEYKCKVSNKALPKPIEKTISKAKGQPREPQVYTLPPSREEMTKNQVSLTCLVKGFYPSDIAVEWESNGQPENNYKTTPPVLDSDGSFFLYSKLTVDKSRWQQGNVFSCSVMHEALHNHYTQKSLSLSP
light: DIVMTQSPATLSLSPGERATLSCTSSQSVYHANWLSWFQQKPGQPPKLLIYWASTLAYGVPSRFSGSGSGTDFTLTISSLQPEDAATYYCAGGYGGGRYAFGQGTKVEIKRTVAAPSVFIFPPSDEQLKSGTASVVCLLNNFYPREAKVQWKVDNALQSGNSQESVTEQDSKDSTYSLSSTLTLSKADYEKHKVYACEVTHQGLSSPVTKSFNRGEC
notes: copies: 2 + 2
B2: M103205H795-MY456/M103202L889-SK1 (antibody, human IgG1, kappa)
heavy: B1 heavy with R234V
light: B1 light
notes: copies: 2 + 2
B3: M103205H795-MY457/M103202L889-SK1 (antibody, human IgG1, kappa)
heavy: B1 heavy with R234W
light: B1 light
notes: copies: 2 + 2
B4: M103205H795-MY455/M103202L889-SK1 (antibody, human IgG1, kappa)
heavy: B1 heavy with R234T
light: B1 light
notes: copies: 2 + 2
B5: M103205H795-MY454/M103202L889-SK1 (antibody, human IgG1, kappa)
heavy: B1 heavy with R234S
light: B1 light
notes: copies: 2 + 2
B6: M103205H795-MY458/M103202L889-SK1 (antibody, human IgG1, kappa)
heavy: B1 heavy with R234Y
light: B1 light
notes: copies: 2 + 2
B7: GpH7-B3 variant N325F/GpL16-k0 (antibody, human IgG1, kappa)
heavy: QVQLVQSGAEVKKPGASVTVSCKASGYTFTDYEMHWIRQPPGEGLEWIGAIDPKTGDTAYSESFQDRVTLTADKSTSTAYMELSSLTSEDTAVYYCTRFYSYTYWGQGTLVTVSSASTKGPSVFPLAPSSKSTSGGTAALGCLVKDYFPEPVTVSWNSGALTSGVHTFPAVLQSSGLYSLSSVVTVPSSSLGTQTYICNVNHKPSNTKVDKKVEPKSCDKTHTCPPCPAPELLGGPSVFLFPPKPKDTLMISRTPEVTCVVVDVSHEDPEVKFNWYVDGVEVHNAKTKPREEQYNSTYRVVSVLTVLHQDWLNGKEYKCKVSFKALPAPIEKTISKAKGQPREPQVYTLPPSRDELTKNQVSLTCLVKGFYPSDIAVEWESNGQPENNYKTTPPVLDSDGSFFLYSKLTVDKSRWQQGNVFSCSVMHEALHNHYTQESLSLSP
light: DIVMTQSPLSLPVTPGEPASISCQASESLVHSNRNTYLHWYLQKPGQSPQLLIYKVSNRFSGVPDRFSGSGSGTDFTLKISRVEAEDVGVYYCSQNTHVPPTFGQGTKVEIERTVAAPSVFIFPPSDEQLKSGTASVVCLLNNFYPREAKVQWKVDNALQSGNSQESVTEQDSKDSTYSLSSTLTLSKADYEKHKVYACEVTHQGLSSPVTKSFNRGEC
B8: GpH7-B3 variant P238Y/GpL16-k0 (antibody, human IgG1, kappa)
heavy: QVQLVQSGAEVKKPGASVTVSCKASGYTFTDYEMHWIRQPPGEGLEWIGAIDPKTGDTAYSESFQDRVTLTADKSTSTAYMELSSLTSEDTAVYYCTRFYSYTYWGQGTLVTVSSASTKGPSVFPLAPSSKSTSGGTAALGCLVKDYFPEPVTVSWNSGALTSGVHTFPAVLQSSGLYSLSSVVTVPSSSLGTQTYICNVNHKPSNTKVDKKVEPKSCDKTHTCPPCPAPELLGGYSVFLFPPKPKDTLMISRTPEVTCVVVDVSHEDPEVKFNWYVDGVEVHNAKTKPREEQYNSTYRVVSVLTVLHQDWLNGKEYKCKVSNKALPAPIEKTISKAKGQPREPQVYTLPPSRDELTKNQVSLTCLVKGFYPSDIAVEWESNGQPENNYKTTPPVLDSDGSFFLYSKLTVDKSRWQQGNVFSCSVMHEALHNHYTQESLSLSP
light: B7 light
B9: GpH7-B3 variant V266F/GpL16-k0 (antibody, human IgG1, kappa)
heavy: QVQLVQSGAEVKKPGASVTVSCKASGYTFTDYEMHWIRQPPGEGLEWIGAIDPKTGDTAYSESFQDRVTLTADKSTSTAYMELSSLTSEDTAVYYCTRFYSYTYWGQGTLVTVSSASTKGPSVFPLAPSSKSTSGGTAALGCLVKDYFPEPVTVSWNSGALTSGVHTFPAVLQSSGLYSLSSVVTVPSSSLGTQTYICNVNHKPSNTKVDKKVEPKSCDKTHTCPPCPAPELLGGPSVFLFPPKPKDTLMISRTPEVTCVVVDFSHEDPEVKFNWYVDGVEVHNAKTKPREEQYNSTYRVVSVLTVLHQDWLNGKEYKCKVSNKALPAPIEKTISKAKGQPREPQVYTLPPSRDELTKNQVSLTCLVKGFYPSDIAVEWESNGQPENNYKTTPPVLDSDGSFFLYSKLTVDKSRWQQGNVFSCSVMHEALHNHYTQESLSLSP
light: B7 light

Molecular target: T1, cynomolgus monkey FcγRIIa1 …
Test: SPR (BIACORE), captured antibody, FcgR as analyte
Procedure: (§1) The kinetic analysis of interactions between these antibodies and FcγR was carried out using BIACORE® T200 or BIACORE® 4000 (GE Healthcare). HBS-EP+ (GE Healthcare) was used as the running buffer, and the measurement temperature was set to 25° C. A chip produced by immobilizing Protein A. Protein A/G or mouse anti-human IgG kappa light chain (BD Biosciences) onto a Series S Sensor Chip CM4 or CM5 (GE Healthcare) by the amine-coupling method was used. […] After the measurement, the antibody captured on the chip was washed off by allowing reaction with 10 mM glycine-HCl, pH1.5 and 25 mM NaOH so that the chip was regenerated and used repeatedly. The sensorgrams obtained as measurement results were analyzed by the 1:1 Langmuir binding model using the BIACORE® Evaluation Software to calculate the binding rate constant ka (L/mol/s) and dissociation rate constant kd (l/s), and the dissociation constant KD (mol/L) was calculated from these values. […] Regarding such interactions, KD values were calculated using the following 1:1 binding model described in BIACORE® T100 Software Handbook BR1006-48 Edition AE.

Kd [µM] | Binder
8.2 | B1
1.9 | B2
0.83 | B3
3.1 | B4
3.8 | B5
1.8 | B6

Molecular target: T2, cynomolgus monkey FcγRIIa2 …
Test: SPR (BIACORE), captured antibody, FcgR as analyte
Procedure: as §1

Kd [µM] | Binder
9.9 | B1
1.7 | B2
0.84 | B3
1.9 | B4
3.1 | B5
1.6 | B6

Molecular target: T3, cynomolgus monkey FcγRIIa3 …
Test: SPR (BIACORE), captured antibody, FcgR as analyte
Procedure: as §1

Kd [µM] | Binder
21 | B1
3.4 | B2
1.2 | B3
5.4 | B4
7.6 | B5
3 | B6

Molecular target: T4, cynomolgus monkey FcγRIIb extracellular …
Test: SPR (BIACORE), captured antibody, FcgR as analyte
Procedure: as §1

Kd [µM] | Binder
2.1 | B1
0.52 | B2
0.2 | B3
0.92 | B4
1 | B5
0.43 | B6

Molecular target: T5, cynomolgus monkey FcγRIIIaS …
Test: SPR (BIACORE), captured antibody, FcgR as analyte
Procedure: as §1

Kd [µM] | Binder
6.5 | B1
2 | B2
1.1 | B3
2.8 | B4
2.5 | B5
0.19 | B6

molecular target: T6, human FcγRIIaH extracellular domain, …; test: SPR (BIACORE), captured antibody, FcgR as analyte
Procedure: as §1

Kd [µM] | Binder
0.75 | B1
0.17 | B2
0.12 | B3
0.31 | B4
0.41 | B5
0.16 | B6

Molecular target: T7, human FcγRIIaR extracellular domain, …
Test: SPR (BIACORE), captured antibody, FcgR as analyte
Procedure: as §1

Kd [µM] | Binder
1.6 | B1
0.29 | B2
0.073 | B3
0.46 | B4
0.76 | B5
0.17 | B6

molecular target: T8, human FcγRIIb extracellular domain, …; test: SPR (BIACORE), captured antibody, FcgR as analyte
Procedure: as §1

Kd [µM] | Binder
6.5 | B1
1.1 | B2
0.33 | B3
2.2 | B4
3.1 | B5
0.99 | B6

molecular target: T11, human FcγRIIIaV extracellular domain, His-tagged (human, UniProt P08637 17-208); test: SPR (BIACORE), captured antibody, FcgR as analyte
T11 construct: also called FcgRIIIaV; not shown: C-terminal His-tag
T11 sequence (P08637 17-208 F176V): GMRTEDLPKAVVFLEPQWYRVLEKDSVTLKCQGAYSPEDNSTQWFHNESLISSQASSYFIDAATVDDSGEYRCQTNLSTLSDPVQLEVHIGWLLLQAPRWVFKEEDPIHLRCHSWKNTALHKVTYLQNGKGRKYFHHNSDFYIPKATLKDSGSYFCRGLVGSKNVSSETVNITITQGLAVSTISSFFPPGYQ
Procedure: as §1

Kd [µM] | Binder
14 | B1
5.3 | B2
3.5 | B3
6.8 | B4
5.9 | B5
5.3 | B6

molecular target: T9, human FcγRIIaH extracellular domain, …; test: SPR 25C; FcgR bound per captured antibody, relative to parent B3
Procedure: (§2) These Fc variants are referred to as B3 variants. B3 variants were expressed and the binding of protein-A purified antibodies to each FcγR (FcγRIIa type H. FcγRIIa type R, FcγRIIb, and FcγRIIIaF) was comprehensively evaluated as follows. Analysis of interaction between each altered antibody and the Fcγ receptor prepared as mentioned above was carried out using BIACORE® T100 (GE Healthcare), BIACORE® T200 (GE Healthcare), BIACORE® A100, or BIACORE® 4000. HBS-EP+(GE Healthcare) was used as the running buffer, and the measurement temperature was set to 25° C. Chips produced by immobilizing Protein A (Thermo Scientific), Protein A/G (Thermo Scientific), or Protein L (ACTIGEN or BioVision) by the amine coupling method to a Series S sensor Chip CM5 or CM4 (GE Healthcare) were used. After capturing of antibodies of interest onto these sensor chips, an Fcγ receptor diluted with the running buffer was allowed to interact, the amount bound to an antibody was measured. However, since the amount of Fcγ receptor bound depends on the amount of the captured antibodies, the amount of Fcγ receptor bound was divided by the amount of each antibody captured to obtain corrected values, and these values were compared. Furthermore, antibodies captured onto the chips were washed by 10 mM glycine-HCl pH1.5, and the chips were regenerated and used repeatedly. […] The value obtained by multiplying this value by 100 was used as an indicator of the relative FcγR-binding activity of each variant.

Binding to human FcgRs (parent B3 = 100) | Binder
65 | B7
93 | B8

molecular target: T10, human FcγRIIb extracellular domain, …; test: as above
Procedure: as §2

Binding to human FcgRs (parent B3 = 100) | Binder
72 | B7
114 | B8
88 | B9
